Measured values from patent US20250333445A1, “NOVEL POLYPEPTIDES” (Oncopeptides Innovation 1 AB, priority 2022, published 2025).

Target: Human BCMA-rFc (BCMA Protein aa 1-54, Human, Recombinant (ECD, rabbit Fc Tag), cat. no. 10620-H15H, Sino Biological) (human) (UniProt Q02223)
Test: SPR, 200 nM hCD16a over immobilised hBCMA-rFc without engager (background control)

Row | response signal [RU] | Substance
1 | < 10 | hCD16a F158 (Cat. no. CDA-H5220, Acro Biosystems) (from UniProt P08637 17-208) (receptor)
2 | < 10 | hCD16a V158 (Cat. no. CD8-H52H4, Acro Biosystems) (from UniProt P08637 17-208) (receptor)
